Data on one molecule can be found in patent publication US20230242654A1, “REAGENTS FOR EXPANDING CELLS EXPRESSING RECOMBINANT RECEPTORS” (Juno Therapeutics, Inc., priority 2017, published 2023).

Series [1] has as its system T cells transduced with anti-CD19 CAR having an scFv derived from FMC63. Description: CAR-specific cell expansion with anti-ID B-1 conjugated beads, 9 days, two patient donors. Type of series: cell-based, human. On the procedure: Similar studies as those described in Examples 11 and 12 were performed, except using CAR-expressing T cells generated from two different patient donors. CD3-purified T cells were isolated from peripheral blood mononuclear cells (PBMCs) of two donor patients, transduced with a viral vector encoding an anti-CD19 CAR having an scFv derived from FMC63, expanded in culture, frozen, and thawed.
Thawed CD4+, CD8+ or co-cultures of CD4/CD8 (1:1 ratio) were seeded in wells of a 6-well plate at approximately 5×10^6 total cells/well in culture media that was additionally supplemented with cytokines as follows: for CD4+ cells or CD4+/CD8+ co-cultures media was supplemented with approximately 1200 IU/mL recombinant IL-7, 20 IU/mL recombinant IL-15 and 100 IU/mL recombinant IL-2; for CD8+ cells media was supplemented with 200 IU/mL recombinant IL-2 and 20 IU/mL recombinant IL-15. Anti-ID B-1 conjugated beads were added to cells at a 1:1 cell:bead ratio and incubated up to 9 days with a 50% media exchange every 2-3 days.
At various times of culture, the number of CD4+ or CD8+ transduced cells (as detected by anti-EGFR for expression of the EGFRt surrogate marker) present in the culture for each condition was assessed and fold expansion or frequency of the CAR-expressing cells as a percent of total cells was determined. Expression of PD-1 and CD25 and cell viability also was determined.

The nature of series [2]: Stability of antibody conjugated beads (supernatant SDS-PAGE, Coomassie blue). Type of series: physicochemical. On the procedure:
To assess stability of the anti-ID conjugated beads, the beads were pelleted, the supernatant was removed and loaded on a 4-12% Bis-Tris SDS-PAGE gel and the gel was stained with Coomassie blue. As a control for total protein conjugated on the beads, the pelleted beads were boiled in 4× (lithium dodecyl sulfate) LDS sample buffer at about 70° C. for 20 minutes and approximately 12.5 μL or 25 μL boiled supernatant also was run on SDS-PAGE gel and assessed by Coomassie blue. Approximately 2.5 μg or 5.0 μg anti-ID antibody that had not been conjugated to the beads (positive control) or 5 μL 0.1% HSA (negative control) also were assessed by SDS-PAGE and Coomassie blue staining.
Stability of the antibody conjugated beads was assessed by pelleting the antibody-conjugated beads, running the resultant supernatant on an 4-12% Bis-Tris gel, and staining the gel for protein with Coomassie blue. As a control for total protein conjugated on the beads, a 10 μL sample of supernatant from pelleted beads that were boiled in LDS sample buffer also was assessed. […] Bands corresponding to the antibodies were detected in the sample with the supernatant from the boiled sample.
Stability of the antibody conjugated beads was assessed by pelleting the antibody-conjugated beads, running the resultant supernatant on an 4-12% Bis-Tris gel, and staining the gel for protein with Coomassie blue. […]

The test system of series [3] is anti-CD19 CAR+ T cells. The series is described as follows: Chronic stimulation assay, 14 days with anti-ID conjugated beads, then K562-CD19 challenge. It is filed as cell-based, human. Particulars: 14 days CAR-specific stimulation versus none; E:T 1:1. The source says:
Separate compositions of CD4+ and CD8+ cells were isolated from human donors, activated and transduced with a viral vector encoding an anti-CD19 CAR having an scFv derived from FMC63. CD4+ and CD8+ T cells from each donor were then separately harvested, formulated, and cryofrozen. The cryofrozen engineered CD4+ and CD8+ T cells were thawed and formulated at a 1:1 ratio of CD4+ and CD8+ T cells from the same donor to generate a T cell composition containing CAR+ T cells. Anti-ID conjugated beads against the anti-CD19 CAR were incubated with cells at a 1:1 bead:cell ratio for 14 days.
[…] The primary response of T cells from the T cell composition that had not been incubated with the anti-ID conjugated beads also was determined by similar stimulation with antigen-expressing cells (Day 0; “primary”). […] Killing activity was assessed by measuring the loss of viable target cells over 72 hours, as determined by loss of fluorescent signal over time by kinetic fluorescence microscopy (using the INCUCYTE® Live Cell Analysis System, Essen Bioscience). Killing index was determined as the inverse of the area under the curve (AUC) for target fluorescence over time. Intracellular cytokine levels of IL-2 and TNF-alpha also was assessed by flow cytometry in co-cultured T cells after incubation in the presence of Golgi inhibitor. […]

B1: anti-ID conjugated beads: FMC63-derived scFv-specific anti-idiotype antibody (B-1 in Examples 10-14) covalently coupled to tosyl-activated magnetic beads (conjugate)
heavy: EVQLQQSGPELVKPGASVKMSCKASGYTFTDYYMKWVKQCHGKSLEWIGDINPNNGGTDYNQNFKGKATLTVDKSSSTAYMQLNSLTSEDSAVYYCAREGNNYGSRDAMDYWGQGTSVTVSSAKTTAPSVYPLAPVCGDTTGSSVTLGCLVKGYFPEPVTLTWNSGSLSSGVHTFPAVLQSDLYTLSSSVTVTSSTWPSQSITCNVAHPASSTKVDKKIEPRGPTIKPCPPCKCPAPNLLGGPSVFIFPPKIKDVLMISLSPIVTCVVVDVSEDDPDVQISWFVNNVEVHTAQTQTHREDYNSTLRVVSALPIQHQDWMSGKEFKCKVNNKDLPAPIERTISKPKGSVRAPQVYVLPPPEEEMTKKQVTLTCMVTDFMPEDIYVEWTNNGKTELNYKNTEPVLDSDGSYFMYSKLRVEKKNWVERNSYSCSVVHEGLHNHHTTKSFSRTPGK
light: QIVLTQSPALMSASPGEKVTMTCSASSGVIYMYWYQQKPRSSPKPWIYLTSNLASGVPARFSGSGSGTSYSLTISSMEAEDAATYYCQQWSSNPLTFGAGTKLELKRADAAPTVSIFPPSSEQLTSGGASVVCFLNNFYPKDINVKWKIDGSERQNGVLNSWTDQDSKDSTYSMSSTLTLTKDEYERHNSYTCEATHKTSTSPIVKSFNRNEC
For B1, in series [1] (CD4+ cells cultured alone, 1:1 cell:bead, up to 9 days), the “expansion of CAR-expressing (EGFRt+) CD4+ T cells” value is on record as “over 60 fold”. In addition, the “expansion of CAR-expressing (EGFRt+) CD8+ T cells” value in series [1] (CD8+ T cells co-cultured with CD4+ cells) is “substantially higher expansion”. The CD25 expression entry in series [1] (after 9 days) is on record as “also was decreased”. In series [1] (day 9), the “frequency of transduced cells (EGFRt+) in the culture” value was > 90%. In addition, the “PD-1 expression on CD4+ and CD8+ T cells” value in series [1] (days 5, 7 and 9) is “decreased substantially over time”. Further, in series [1] (during the 9 day culture), the “Viability of CD4+ and CD8+ cells” value was ~100%. Moreover, the “stability of the conjugation” value in series [2] is recorded as “the conjugation was stable”. For the same molecule, the “Intracellular cytokine levels of IL-2 and TNF-alpha” value in series [3] is listed as “also were reduced”.
